Measured values from patent publication US20100297093A1.
Where two headings read alike, the source gives them in different places.

Assays:
[1] = molecular target: MART-1 peptide on HLA-A*02:01 (human); assay: peptide titration, transfected CD4+ T cells, peptide-pulsed target cells; upper bound 100 fold; minimal effect in CD8+ T cells; full-length, on cells
[2] = molecular target: MART-1:27-35 peptide presented by HLA-A2 on target cells (UniProt Q16655); assay: cell-based or functional assay
[3] = molecular target: MART-1:27-35 peptide presented by HLA-A2 on target cells (UniProt Q16655); assay: cell-based or functional assay; remark: listed apart in the source

## DMF4 β51:A
[1]
  fold lower peptide concentration recognised than with the WT TCR: > 10 fold

## DMF4 TCR, WT α + β51:A (G51A)
[2]
  IFN-γ; CD4+ T; 624.38: 15800 pg/mL
  IFN-γ; CD4+ T; 1300: 11200 pg/mL
  IFN-γ; CD8+ T; 624.38: 32800 pg/mL
  IFN-γ; CD8+ T; 1300: 78000 pg/mL
  peptide titration; CD4+ T; fold lower MART-1:27-35 concentration recognized vs WT DMF4: 10 to 100 fold

## DMF4 anti-MART-1 TCR, wild type α and β chains
[2]
  IFN-γ; CD4+ T; 624.38: 3220 pg/mL
  IFN-γ; CD4+ T; 1300: 3480 pg/mL
  IFN-γ; CD8+ T; 624.38: 47700 pg/mL
  IFN-γ; CD8+ T; 1300: 32800 pg/mL

B1: DMF4 TCR, αLA (T93L/G94A) + WT β (TCR, part only; not given: wild type beta chain, part only)
TCR alpha: GQQLNQSPQSMFIQEGEDVSMNCTSSSIFNTWLWYKQDPGEGPVLLIALYKAGELTSNGRLTAQFGITRKDSFLNISASIPSDVGIYFCAGGLANQFYFGTGTSLTVIPNIQNPDPAVYQLRDSKSSDKSVCLFTDFDSQTNVSQSKDSDVYITDKTVLDMRSMDFKSNSAVAWSNKSDFACANAFNNSIIPEDTFFPSPESSCDVKLVEKSFETDTNLNFQNLSVIGFRILLLKVAGFNLLMTLRLWSS
[3]
  IFN-γ; CD4+ T; 624.38: 20400 pg/mL
  IFN-γ; CD4+ T; 1300: 11100 pg/mL
  IFN-γ; CD8+ T; 624.38: 36400 pg/mL
  IFN-γ; CD8+ T; 1300: 91800 pg/mL
